Experimental data as given in US20230181748A1 (published 2023).
Read-outs that look alike come from different tables or passages of the source. One block for each binder: values may come before it. Non-standard residues stand in square brackets, D forms with d. No end group written: not given here. pomalidomide = small molecule targeting Cereblon, fused after the C-terminal end; Hyp = O=C(O)[C@@H]1C[C@@H](O)CN1

How the values were obtained:
Experiment in all cases: MST
[1] = target: T1, atto-633-labeled preformed tau aggregates (UniProt P10636 1-441, atto-633 label, site not stated)
T1 sequence (P10636 other isoform, or with tags, fused parts or gaps): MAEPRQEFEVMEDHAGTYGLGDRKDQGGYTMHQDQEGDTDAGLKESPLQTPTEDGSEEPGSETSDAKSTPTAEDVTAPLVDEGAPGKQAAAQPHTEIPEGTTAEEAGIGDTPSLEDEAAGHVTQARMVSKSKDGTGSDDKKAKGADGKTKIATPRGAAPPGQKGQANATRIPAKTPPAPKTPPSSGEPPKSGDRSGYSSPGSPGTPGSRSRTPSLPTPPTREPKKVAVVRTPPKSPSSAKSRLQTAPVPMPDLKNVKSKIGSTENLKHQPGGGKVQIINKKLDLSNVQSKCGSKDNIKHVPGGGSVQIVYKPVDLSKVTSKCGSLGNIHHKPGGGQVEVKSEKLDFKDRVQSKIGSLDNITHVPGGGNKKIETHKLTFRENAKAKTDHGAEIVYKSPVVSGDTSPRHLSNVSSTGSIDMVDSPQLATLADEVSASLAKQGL

[2] = target: preformed, sonicated Aβ aggregates (UniProt P05067 672-713)
preformed, sonicated Aβ aggregates, sequence (P05067 672-713): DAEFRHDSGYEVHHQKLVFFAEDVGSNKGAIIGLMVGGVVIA

[3] = target: T1, atto-633-labeled preformed tau …; remark: listed apart in the source
[4] = target: T1, atto-633-labeled preformed tau …; remark: listed apart in the source
[5] = target: atto-633-labeled tau monomers (UniProt P10636 1-441, atto-633 label, site not stated)
atto-633-labeled tau monomers, sequence (P10636 other isoform, or with tags, fused parts or gaps): as the sequence (P10636 other isoform, or with tags, fused parts or gaps) above

Kd [1]: 2.2 µM
Binder: WQIVYKGSVWMINKGSGSNLLRLTGW [HET_JAV]

Kd [2]: 4.94 µM
Kd [3]: 4.65 µM
Binder: MVWGVVGSKLWFFA [AbCap_3]

Kd [4]: ~3.3 µM
Binder: WQIVYKGSVWMINK [HET]

Kd [2]: 1.55 µM
Binder: MVWGVVGSKWVFFA [AbCap_4]

Kd [1]: 4.8 µM
Kd [5]: ~10.9 µM
Binder: WQIVYKGSVWMINK-pomalidomide (also: pomalidomide link chemistry not described) [HET-pomalidomide]

Kd [4]: 3.3 µM
Binder: WQIVYKGSVWMINKGSGSALA[Hyp]YIP [HET fused to the VHL-moiety]

Kd [2]: 6.08 µM
Binder: GWVVIAGSKLKFFA [AbCap_19]
